B1: SOD1C5-4 (cyclo-TWSVW) (peptide)
peptide: TWSVW
modifications: head-to-tail cyclic peptide (cyclo-TWSVW), no free termini
notes: Made by solid-phase synthesis (CPC Scientific); Backbone-cyclised pentapeptide; also called SODC5-4; selected cyclic pentapeptide SOD1C5-4
B2: AβC5-34 (cyclo-SASPT) (peptide)
peptide: SASPT
modifications: head-to-tail cyclic peptide (cyclo-SASPT), no free termini
notes: Made by solid-phase synthesis (Genscript); also called Aβ-targeting cyclic 5-peptide number 34
B3: AβC5-116 (cyclo-TAFDR) (peptide)
peptide: TAFDR
modifications: head-to-tail cyclic peptide (cyclo-TAFDR), no free termini
notes: Made by solid-phase synthesis (Genscript)

Molecular target: T1, SOD1(A4V), Ala4Val variant of human Cu/Zn superoxide dismutase 1 (human, UniProt P00441 2-154, A4V)
T1 construct: Isolated from E. coli Origami 2(DE3) (pETSOD1(A4V) or pASK-SOD1 vectors); also called isolated SOD1(A4V); mutant SOD1
T1 sequence (P00441 2-154 A5V): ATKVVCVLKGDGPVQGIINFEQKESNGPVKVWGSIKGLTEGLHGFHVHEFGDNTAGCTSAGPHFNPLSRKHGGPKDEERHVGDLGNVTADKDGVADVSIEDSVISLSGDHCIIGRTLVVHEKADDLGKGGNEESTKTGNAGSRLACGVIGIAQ
Test: CD spectroscopy of isolated SOD1(A4V) incubated with synthetic cyclic peptide
Description: Appropriate amounts of synthetic cyclic peptides were added to either 40 µM SOD1(A4V) or 50 µM Aβ solutions at the desired cyclic peptide:target protein molar ratio. SOD1(A4V) structural changes were monitored for 90 d at 25° C., under quiescent conditions. Aβ structural changes were monitored for 30 d at 33° C. under quiescent conditions. CD spectra in the range 190-260 nm were recorded on a JASCO J-715 spectropolarimeter (Jasco Co., Japan) using quartz cuvettes with 1 mm path length. Each reported spectrum is the average of three scans at a rate of 100 nm·min^-1 and a resolution of 0.5 nm.

binding result	Binder
binds	B1
no binding	B2
no binding	B3

Source: patent US11858974 (RESQ BIOTECH, dated 2024)
